Data: patent US5731326A, “PDGF antagonists II” (ZymoGenetics, Inc., priority 1996, dated 1998)

Legend:
[1] = tested on: baboon smooth muscle cells; experiment: Wash-out study of PDGF-BB mitogenic activity on baboon smooth muscle cells; assay type: cell-based; conditions: T = -24 hrs 0.5% DMSO; T = 0 hrs PDGF-BB (1 ng/ml); mean +/- SD; vehicle only 164 +/- 10
Description: NNC92-0270 was analyzed for prolonged inhibitory effect on PDGF-BB mitogenic activity on baboon smooth muscle cells in a wash-out experiment. Baboon SMCs were plated at 20,000 cells per well in a 24-well culture dish and grown for 2 days. The culture media was removed and replaced with Mito Media (Table 5) to allow the cells to become quiescent. The experiment was set up such that cells were treated with NNC92-0270 or vehicle control (0.5% DMSO) for either 24 hours prior to the addition of PDGF-BB, or sequentially with the addition of PDGF-BB. Those cells initially treated with NNC92-0270 or control vehicle for 24 hours, were washed with Mito Media to remove the test compound and then incubated with PDGF-BB (1 ng/ml) for an additional 24 hours. A second set of cells was treated with NNC92-0270 or vehicle control simultaneously with PDGF-BB for 24 hours. The cells were pulse labeled for 4 hours with [^3 H] thymidine (1 μCi/ml final) harvested with trypsin and counted in a Wallac Betaplate counter to determine CPM for [^3 H] thymidine incorporation.
Acetic acid (10 mM) was used as the PDGF-BB vehicle control and 0.5% DMSO was used as the test compound control.

[2] = tested on: baboon smooth muscle cells; experiment: Inhibition of PDGF-BB mitogenic activity on baboon smooth muscle cells ([3H] thymidine incorporation); assay type: cell-based; conditions: vehicle 74
Description: NNC92-0270 was analyzed for the ability to inhibit the mitogenic activity of PDGF on baboon smooth muscle cells. All mitogenesis assays performed on baboon vascular smooth muscle cells (BVSMCs) were done on primary cultures of cells between passages 13 and 20 in culture. The initial cultures were established from outgrowth of aortic tissue explants. Baboon smooth muscle cells were plated at approximately 20,000 cells per well, in DMEM supplemented with 10% fetal calf serum, into 24-well culture dishes. One day prior to use the culture media was removed, and 1 ml of Mito Media (Table 5) was added to each well to allow the cells to become quiescent. At the time of the experiment the cells were stimulated with PDGF-BB. […] 20× stock solutions were made for each of the PDGF concentrations by dilution in 10 mM acetic acid containing 0.25% albumin, and 50 ul PDGF or dilution vehicle alone was added to the culture wells.
To analyze the activity of NNC92-0270 to neutralize PDGF-BB mitogenic activity, 1 ng/ml of PDGF was added to wells along with dilutions of NNC92-0270. The cells were incubated with the test samples for approximately 20 hours at 37 ° C. Fifty microliters of a 20× stock solution of [3H] Thymidine was then added to each well to give a final concentration of 1 μCi/ml. The cells were incubated for 4 hours at 37 ° C., washed with PBS, then harvested with trypsin and counted for [^3 H] thymidine incorporation in a Wallac (Turku, Finland) Betaplate™ liquid scintillation counter.
NNC92-0270 was incubated with 1 ng/ml of PDGF-BB in the presence of 0.5 U/ml of unfractionated heparin. The cells were pulse labeled with [^3 H] thymidine as described above and the level of [^3 H] thymidine determined.

B1: PDGF-BB: platelet derived growth factor BB, mitogenic stimulus used for the standard curve (protein, UniProt P01127 82-190, looked up)
Platelet-derived growth …: SLGSLTIAEPAMIAECKTRTEVFEISRRLIDRTNANFLVWPPCVEVQRCSGCCNNRNVQCRPTQVQLRPVQVRKIEIVRKKPIFKKATVTLEDHLACKCETVAAARPVT
modifications: homodimer
notes: platelet derived growth factor BB, mitogenic stimulus used for the standard curve
[3H] Thymidine Incorporation (cpm) [1]: 6370 +/- 1303 cpm | 3H Thymidine (CPM Incorporated), PDGF-BB standard curve ([2]; PDGF-BB 0.062 ng/ml): 120 CPM | 3H Thymidine (CPM Incorporated), PDGF-BB standard curve ([2]; PDGF-BB 0.125 ng/ml): 226 CPM | 3H Thymidine (CPM Incorporated), PDGF-BB standard curve ([2]; PDGF-BB 0.25 ng/ml): 392 CPM | 3H Thymidine (CPM Incorporated), PDGF-BB standard curve ([2]; PDGF-BB 0.5 ng/ml): 959 CPM | 3H Thymidine (CPM Incorporated), PDGF-BB standard curve ([2]; PDGF-BB 1 ng/ml): 1701 CPM
